{
  "source": "paper PMC10144703",
  "about": "“Molecular Mechanism of Sirtuin 1 Inhibition by Human Immunodeficiency Virus 1 Tat Protein” (Life, 2023)",
  "molecular_target": "human mini-Sirt1 (aa 183-505-(GGGS)2-641-665) (human) (UniProt Q96EB6)",
  "sequence (Q96EB6 other isoform, or with tags, fused parts or gaps)": "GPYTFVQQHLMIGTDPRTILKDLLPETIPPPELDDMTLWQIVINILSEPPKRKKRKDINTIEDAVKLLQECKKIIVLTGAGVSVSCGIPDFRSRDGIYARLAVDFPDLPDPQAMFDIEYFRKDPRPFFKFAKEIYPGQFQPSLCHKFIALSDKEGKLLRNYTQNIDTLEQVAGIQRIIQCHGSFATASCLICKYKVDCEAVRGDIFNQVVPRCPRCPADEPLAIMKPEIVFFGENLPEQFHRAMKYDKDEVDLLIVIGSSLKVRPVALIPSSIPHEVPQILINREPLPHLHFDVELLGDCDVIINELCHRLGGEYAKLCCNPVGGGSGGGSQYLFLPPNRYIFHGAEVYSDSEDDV",
  "note": "Where no end group is shown, it is not given here.",
  "data": [
    {"binder": "SYGRKKRRQ (not fully specified)", "note": "[Tat-46–54 (non-acetylated)]", "values": [
      {"measurement": "inhibition of mini-Sirt1 in the FdL assay; IC50", "result": 131, "unit": "µM"}
    ]}
  ]
}
